Earlier results, collected in patent US20090048308A1, “VLA-4 Antagonists” (priority 2005, published 2009).

Target: T1, VLA-4 (Homo sapiens, UniProt P13612)
T1 construct: host or cells: VLA-4-bearing blood cells of trial subjects (inferred)
Settings: early clinical trials

## natalizumab: humanized monoclonal antibody against α4 (Tysabri®, Elan/Biogen)
  receptor occupancy: > 80%
